Peptide text beside a SMILES is read from it. * marks the point of attachment. Cbz = O=C(OCc1ccccc1)*; CH2F = FC*
Legend:
[1] = system: 293T cells; assay: Apoptosis assay, RICK co-transfection; assay type: cell-based, human; conditions: for caspase-8-induced apoptosis potentiated by RICK: 293T cells, zVAD-fmk 20 μM added at 8 hrs after transfection, p35 by expression plasmid
Description: The total amount of transfected plasmid DNA was adjusted with pcDNA3 plasmid to be the same within individual experiments. After transfection, 293T cells were harvested at different times and lysed with 0.2% NP-40 isotonic lysis buffer [N. Inohara et al., Proc. Natl. Acad. Sci. U.S.A. 94:10717-10722 (1997)]. The B lymphocyte-derived BJAB cell line was stably trasnfected by electroporation with pcDNA3 or pcDNA3-Flag-RICK (K38M). After selection with […] (1 μg/ml), bulk cell lines were tested for RICK protein expression with anti-Flag antibody by flow cytometric analysis. For immunoprecipitation, 1 mg of soluble protein was incubated with 10 μg/ml of polyclonal anti-Flag, anti-myc or control antibody overnight at 4° C. and tagged proteins were immunoprecipitated with Protein A-Sepharose 4B (Zymed Laboratories Inc.). Immunoprecipitated proteins or total lysates were subjected to 12% SDS-polyacrylamide electrophoresis and immunoblotted with monoclonal antibodies (mAb) to HA (Boeringer Mannheim) or Flag (Kodak).
Apoptosis Assays: 5×10^5 293T cells were co-transfected with 0.2 μg of pcDNA3-β-gal plus each expression plasmid in triplicate by the calcium phosphate method as reported [N. Inohara et al., Proc. Natl. Acad. Sci. U.S.A. 94:10717-10722 (1997)]. In some experiments, 20 μM of the caspase inhibitor zVAD-fmk (Enzyme Systems Products) or 12.5 μl of medium from […] cells producing Fas ligand (Immunex Corporation, Seattle, Wash.) was added at 8 hrs after transfection. At 18 or 24 hours after transfection, cells were fixed, stained for β-galactosidase as described [N. Inohara et al., Proc. Natl Acad. Sci. U.S.A. 94:10717-10722 (1997)] and assayed for morphological features of apoptosis. At least 300 hundred blue-staining cells were counted. BJAB apoptosis induced by anti-Apol mAb was determined by flow cytometric analysis of nuclei stained with propidium iodide as described [R. Merino et al., J. Immunol. 155:3830-3838 (1995)]. Statistical significance was determined by one-way ANOVA followed by Student-Neuman-Keuls post-doc comparisons.

[2] = system: 293T cells; assay: Apoptosis assay, CIDE transfection; assay type: cell-based, human; conditions: 293T cells
Description: Apoptosis Assays, fluorescence staining of nuclear DNA and DNA fragmentation assay: 5×10^5 293T cells were co-transfected with 0.2 μg of pcDNA3-β-gal plus each expression plasmid in triplicate by the calcium phosphate method as reported [N. Inohara et al, “CLARP, a death effector domain-containing protein interacts with caspase-8 and regulates apoptosis,” Proc. Natl. Acad. Sci. USA 94:10717-10722 (1997a)].
MCF7 were cotransfected with vector control or CIDE-A and β-galactosidase-expressing reporter construct by Lipofectamine (Gibco BRL) according to the manufacturer's instructions. In some experiments, 20 μM zVAD-fmk (benzyloxycarbonyl-Val-Ala-Asp-(OMe)-fluoromethylketone), zFA-fmk (benzyloxycarbonyl-Phe-Ala-(OMc)-fluoromethylketone) and zDEVD-fmk (benzyloxycarbonyl-Asp-Glu-Val-Asp-(OMe)-fluoromethylketone) were added into medium at 8 hr after transfection. zFA-fmk, zVAD-fmk and zDEVD-fmk were obtained from Enzyme Systems. At 24 hours after transfection, cells were fixed, stained for β-galactosidase as described [N. Inohara et al., “CLARP, a death effector domain-containing protein interacts with caspase-8 and regulates apoptosis,” Proc. Natl. Acad. Sci. USA 94:10717-10722 (1997a)] and assayed for morphological features of apoptosis. At least 300 hundred blue-staining cells were counted. Statistical significance was determined by one-way ANOVA followed by Student-Neuman-Keuls post-doc comparisons.
Nuclear staining with acridine-orange was performed as described [N. Inohara et al., “harakiri, a novel regulator of cell death, encodes a protein that activates apoptosis and interacts selectively with survival-promoting proteins Bcl-2 and Bcl-XL.,” EMBO J. 16:1686-1694 (1997b)]. Genomic DNA was extracted and analyzed for DNA fragmentation as described [X. Liu et al., “Apaf-1, a human protein homologous to C. elegans CED-4, participates in cytochrome c-dependent activation of caspase-3,” Cell 90:405-413 (1997)].

[3] = biological target: T1, Flag-tagged RICK (RIP-like interacting CLARP kinase), pcDNA3-Flag-RICK (human, UniProt O43353 11-540, limits assumed); assay: anti-Flag immunoprecipitation from co-transfected 293T cells, anti-HA immunoblot
T1 construct: Entire open reading frame of RICK, expressed in 293T cells; also called CIPERK; Flag-CIPERK; not shown: N-terminal Flag tag
T1 sequence (O43353 other isoform, or with tags, fused parts or gaps limits assumed): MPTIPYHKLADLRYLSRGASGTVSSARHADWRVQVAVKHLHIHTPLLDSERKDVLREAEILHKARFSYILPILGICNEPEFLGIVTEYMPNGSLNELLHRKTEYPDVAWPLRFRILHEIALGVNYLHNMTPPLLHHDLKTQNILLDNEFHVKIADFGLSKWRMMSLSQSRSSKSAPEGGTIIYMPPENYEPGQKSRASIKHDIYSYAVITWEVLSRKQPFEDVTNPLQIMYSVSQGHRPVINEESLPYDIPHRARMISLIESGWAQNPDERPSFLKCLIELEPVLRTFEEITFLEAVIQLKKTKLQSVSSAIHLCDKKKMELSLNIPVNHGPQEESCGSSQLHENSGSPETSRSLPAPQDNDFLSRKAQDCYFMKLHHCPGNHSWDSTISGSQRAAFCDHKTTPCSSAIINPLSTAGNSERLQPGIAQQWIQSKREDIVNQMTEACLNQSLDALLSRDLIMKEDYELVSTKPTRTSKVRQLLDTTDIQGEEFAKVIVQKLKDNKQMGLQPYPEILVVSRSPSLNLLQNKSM

Molecule | binding result [3] | also measured
COC(=O)CC(NC(=O)C(C)NC(=O)C(NC(=O)OCc1ccccc1)C(C)C)C(=O)CF (stereo not drawn) [zVAD-fmk, benzyloxycarbonyl-Val-Ala-Asp-(OMe)-fluoromethylketone, reference compound] (Cbz-Val-Ala-Asp(OMe)-CH2F; configuration not given here) |  | caspase-8-induced apoptosis potentiated by RICK [1]: inhibited; apoptosis induced by caspase-8 ([2]; control experiment, same concentration (20 μM)): inhibited; killing activity of CIDE-A in presence of caspase inhibitors ([2]; peptide inhibitors 20 μM added at 8 hr after transfection, CrmA by plasmid): unaffected
human caspase-2, epitope-tagged (enzyme, UniProt P42575 18-452, looked up, also called AU1-tagged caspase-2; not shown: lette) MAADRGRRILGVCGMHPHHQETLKKNRVVLAKQLLLSELLEHLLEKDIITLEMRELIQAKVGSFSQNVELLNLLPKRGPQAFDAFCEALRETKQGHLEDMLLTTLSGLQHVLPPLSCDYDLSLPFPVCESCPLYKKLRLSTDTVEHSLDNKDGPVCLQVKPCTPEFYQTHFQLAYRLQSRPRGLALVLSNVHFTGEKELEFRSGGDVDHSTLVTLFKLLGYDVHVLCDQTAQEMQEKLQNFAQLPAHRVTDSCIVALLSHGVEGAIYGVDGKLLQLQEVFQLFDNANCPSLQNKPKMFFIQACRGDETDRGVDQQDGKNHAGSPGCEESDAGKEKLPKMRLPTRSDMICGYACLKGTAAMRNTKRGSWYIEALAQVFSERACDMHVADMLVKVNALIKDREGYAPGTEFHRCKEMSEYCSTLCRHLYLFPGHPPT | no binding | 
caspase-3, epitope-tagged (enzyme, UniProt P42574 1-277, looked up, also called pcDNA3-caspase-3-Flag; not shown: position and) MENTENSVDSKSIKNLEPKIIHGSESMDSGISLDNSYKMDYPEMGLCIIINNKNFHKSTGMTSRSGTDVDAANLRETFRNLKYEVRNKNDLTREEIVELMRDVSKEDHSKRSSFVCVLLSHGEEGIIFGTNGPVDLKKITNFFRGDRCRSLTGKPKLFIIQACRGTELDCGIETDSGVDDDMACHKIPVEADFLYAYSTAPGYYSWRNSKDGSWFIQSLCAMLKQYADKLEFMHILTRVNRKVATEFESFSFDATFHAKKQIPCIVSMLTKELYFYH | no binding | 
caspase-4 (enzyme, UniProt P49662 1-377, looked up, not shown: small tags and cut ends) MAEGNHRKKPLKVLESLGKDFLTGVLDNLVEQNVLNWKEEEKKKYYDAKTEDKVRVMADSMQEKQRMAGQMLLQTFFNIDQISPNKKAHPNMEAGPPESGESTDALKLCPHEEFLRLCKERAEEIYPIKERNNRTRLALIICNTEFDHLPPRNGADFDITGMKELLEGLDYSVDVEENLTARDMESALRAFATRPEHKSSDSTFLVLMSHGILEGICGTVHDEKKPDVLLYDTIFQIFNNRNCLSLKDKPKVIIVQACRGANRGELWVRDSPASLEVASSQSSENLEEDAVYKTHVEKDFIAFCSSTPHNVSWRDSTMGSIFITQLITCFQKYSWCCHLEEVFRKVQQSFETPRAKAQMPTIERLSMTRYFYLFPGN | no binding | 
caspase-8, epitope-tagged (pcDNA3-caspase-8-AU1) (enzyme, human, UniProt Q14790-4 1-496, looked up, not shown: small tags and cut ends, also called AU1-tagged caspase-8; FLICE) MDFSRNLYDIGEQLDSEDLASLKFLSLDYIPQRKQEPIKDALMLFQRLQEKRMLEESNLSFLKELLFRINRLDLLITYLNTRKEEMERELQTPGRAQISAYRFHFCRMSWAEANSQCQTQSVPFWRRVDHLLIRVMLYQISEEVSRSELRSFKFLLQEEISKCKLDDDMNLLDIFIEMEKRVILGEGKLDILKRVCAQINKSLLKIINDYEEFSKGEELCGVMTISDSPREQDSESQTLDKVYQMKSKPRGYCLIINNHNFAKAREKVPKLHSIRDRNGTHLDAGALTTTFEELHFEIKPHDDCTVEQIYEILKIYQLMDHSNMDCFICCILSHGDKGIIYGTDGQEAPIYELTSQFTGLKCPSLAGKPKVFFIQACQGDNYQKGIPVETDSEEQPYLEMDLSSPQTRYIPDEADFLLGMATVNNCVSYRNPAEGTWYIQSLCQSLRERCPRGDDILTILTEVNYEVSNKDDKKNMGKQMPQPTFTLRKKLVFPSD | no binding | 
C. elegans CED-3, epitope-tagged (pcDNA3-Ced-3-Flag) (enzyme, UniProt P42573 1-503, looked up, not shown: position and) MMRQDRRSLLERNIMMFSSHLKVDEILEVLIAKQVLNSDNGDMINSCGTVREKRREIVKAVQRRGDVAFDAFYDALRSTGHEGLAEVLEPLARSVDSNAVEFECPMSPASHRRSRALSPAGYTSPTRVHRDSVSSVSSFTSYQDIYSRARSRSRSRALHSSDRHNYSSPPVNAFPSQPSSANSSFTGCSSLGYSSSRNRSFSKASGPTQYIFHEEDMNFVDAPTISRVFDEKTMYRNFSSPRGMCLIINNEHFEQMPTRNGTKADKDNLTNLFRCMGYTVICKDNLTGRGMLLTIRDFAKHESHGDSAILVILSHGEENVIIGVDDIPISTHEIYDLLNAANAPRLANKPKIVFVQACRGERRDNGFPVLDSVDGVPAFLRRGWDNRDGPLFNFLGCVRPQVQQVWRKKPSQADILIAYATTAQYVSWRNSARGSWFIQAVCEVFSTHAKDMDVVELLTEVNKKVACGFQTSQGSNILKQMPEMTSRLLKKFYFWPEARNSAV | no binding | 
TRAF2 (other, UniProt Q12933 1-501, looked up, not shown: small tags and cut ends) MAAASVTPPGSLELLQPGFSKTLLGTKLEAKYLCSACRNVLRRPFQAQCGHRYCSFCLASILSSGPQNCAACVHEGIYEEGISILESSSAFPDNAARREVESLPAVCPSDGCTWKGTLKEYESCHEGRCPLMLTECPACKGLVRLGEKERHLEHECPERSLSCRHCRAPCCGADVKAHHEVCPKFPLTCDGCGKKKIPREKFQDHVKTCGKCRVPCRFHAIGCLETVEGEKQQEHEVQWLREHLAMLLSSVLEAKPLLGDQSHAGSELLQRCESLEKKTATFENIVCVLNREVERVAMTAEACSRQHRLDQDKIEALSSKVQQLERSIGLKDLAMADLEQKVLEMEASTYDGVFIWKISDFARKRQEAVAGRIPAIFSPAFYTSRYGYKMCLRIYLNGDGTGRGTHLSLFFVVMKGPNDALLRWPFNQKVTLMLLDQNNREHVIDAFRPDVTSSSFQRPVNDMNIASGCPLFCPVSKMEAKNSYVRDDAIFIKAIVDLTGL | no binding | 
baculovirus p35: broad-based caspase inhibitor protein of baculovirus, expressed from plasmid (protein, UniProt P08160 1-299, looked up) Early 35 kDa protein: MCVIFPVEIDVSQTIIRDCQVDKQTRELVYINKIMNTQLTKPVLMMFNISGPIRSVTRKNNNLRDRIKSKVDEQFDQLERDYSDQMDGFHDSIKYFKDEHYSVSCQNGSVLKSKFAKILKSHDYTDKKSIEAYEKYCLPKLVDERNDYYVAVCVLKPGFENGSNQVLSFEYNPIGNKVIVPFAHEINDTGLYEYDVVAYVDSVQFDGEQFEEFVQSLILPSSFKNSEKVLYYNEASKNKSMIYKALEFTTESSWGKSEKYNWKIFCNGFIYDKKSKVLYVKLHNVTSALNKNVILNTIK |  | caspase-8-induced apoptosis potentiated by RICK [1]: inhibited
deletion mutant missing the C-terminal 165 amino acids: RICK deletion mutant missing the C-terminal 165 amino acids that span the CARD domain (protein, UniProt O43353 1-365, looked up, fragment) MNGEAICSALPTIPYHKLADLRYLSRGASGTVSSARHADWRVQVAVKHLHIHTPLLDSERKDVLREAEILHKARFSYILPILGICNEPEFLGIVTEYMPNGSLNELLHRKTEYPDVAWPLRFRILHEIALGVNYLHNMTPPLLHHDLKTQNILLDNEFHVKIADFGLSKWRMMSLSQSRSSKSAPEGGTIIYMPPENYEPGQKSRASIKHDIYSYAVITWEVLSRKQPFEDVTNPLQIMYSVSQGHRPVINEESLPYDIPHRARMISLIESGWAQNPDERPSFLKCLIELEPVLRTFEEITFLEAVIQLKKTKLQSVSSAIHLCDKKKMELSLNIPVNHGPQEESCGSSQLHENSGSPETSRSLP |  | apoptosis of 293T cells induced by Fas, Fas plus FasL or caspase-8 ([1]; co-expression with RICK deletion mutants): did not enhance apoptosis

From patent publication US6348573B1, “Compositions and methods for identifying apoptosis signaling pathway inhibitors and activators” (The Regents of the University of Michigan, priority 1998, dated 2002)
